This is an account of results in publication PMC11722253.

For series [1], the target named is T1, SPbeta integrase-RDF fusion (SprA-SprB) (Bacillus subtilis phage SPbeta, UniProt O32006 1-545+=TSGSGGSGGSGGSGRSGT+O34850:2-58, internal_change).
T1 sequence: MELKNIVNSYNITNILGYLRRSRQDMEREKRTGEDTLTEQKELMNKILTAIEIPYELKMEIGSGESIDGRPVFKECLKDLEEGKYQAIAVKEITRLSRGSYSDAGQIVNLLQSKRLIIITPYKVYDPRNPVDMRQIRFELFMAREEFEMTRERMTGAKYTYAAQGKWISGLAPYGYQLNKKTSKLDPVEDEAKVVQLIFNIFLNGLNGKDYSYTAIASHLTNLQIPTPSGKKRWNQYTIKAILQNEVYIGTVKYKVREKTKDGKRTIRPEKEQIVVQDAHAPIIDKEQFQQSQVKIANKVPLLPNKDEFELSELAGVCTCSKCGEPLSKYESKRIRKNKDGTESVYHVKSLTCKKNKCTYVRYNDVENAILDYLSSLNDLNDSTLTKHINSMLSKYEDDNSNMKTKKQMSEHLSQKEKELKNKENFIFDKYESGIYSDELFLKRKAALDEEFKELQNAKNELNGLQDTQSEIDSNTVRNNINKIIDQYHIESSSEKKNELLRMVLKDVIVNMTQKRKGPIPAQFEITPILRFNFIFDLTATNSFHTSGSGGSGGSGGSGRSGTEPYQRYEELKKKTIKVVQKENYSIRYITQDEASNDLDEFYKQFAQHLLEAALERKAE
Nature of the series: SEC. (SEC sorts molecules by how far they enter the pores of the column.)

For series [2], the target named is T2, SPbeta integrase (SprA) (Bacillus subtilis phage SPbeta, UniProt O32006 1-545).
T2 sequence: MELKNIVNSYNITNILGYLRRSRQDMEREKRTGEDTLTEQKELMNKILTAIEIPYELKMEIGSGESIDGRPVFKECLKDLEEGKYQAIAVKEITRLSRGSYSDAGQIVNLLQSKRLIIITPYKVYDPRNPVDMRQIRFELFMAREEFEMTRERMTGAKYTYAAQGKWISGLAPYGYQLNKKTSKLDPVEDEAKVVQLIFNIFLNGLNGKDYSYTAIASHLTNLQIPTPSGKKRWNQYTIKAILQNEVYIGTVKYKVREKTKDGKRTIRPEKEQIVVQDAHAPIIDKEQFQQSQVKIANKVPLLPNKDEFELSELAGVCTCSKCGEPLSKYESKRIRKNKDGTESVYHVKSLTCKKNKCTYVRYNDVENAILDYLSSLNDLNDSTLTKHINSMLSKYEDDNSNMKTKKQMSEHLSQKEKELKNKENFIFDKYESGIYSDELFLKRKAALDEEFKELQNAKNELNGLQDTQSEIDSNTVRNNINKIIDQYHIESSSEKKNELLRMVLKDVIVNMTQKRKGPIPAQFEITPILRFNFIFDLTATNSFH
In words: SEC.

B1: attPmm (dsDNA)
DNA 1: AAAAAAAAGGTAGTAAGTATCTTAAAAAACAGATTTAGCTGTATATTAAGATACTTACTAC
DNA 2: GTAGTAAGTATCTTAATATACAGCTTTATCTGTTTTTTAAGATACTTACTACTTTTTTTTT
For the molecule B1, the binding result in series [1] and in series [2] was “binds” each time.
